In publication doi:10.1101/2025.01.11.632520, “A De Novo Design Strategy to Convert FAcD from Dimer to Active Monomer” (bioRxiv, 2025):

Molecular target: the molecule itself
Experiment: native MS; proteins buffer-exchanged into 0.2 M ammonium acetate (pH 7); Q-Exactive Plus Orbitrap, collision voltage 20 V; room temperature; self-association (dimer vs monomer)

B1: Fluoroacetate dehalogenase (FAcD), wild-type (enzyme, UniProt Q6NAM1 1-302, looked up)
chain: MPDLADLFPGFGSEWINTSSGRIFARVGGDGPPLLLLHGFPQTHVMWHRVAPKLAERFKVIVADLPGYGWSDMPESDEQHTPYTKRAMAKQLIEAMEQLGHVHFALAGHDRGARVSYRLALDSPGRLSKLAVLDILPTYEYWQRMNRAYALKIYHWSFLAQPAPLPENLLGGDPDFYVKAKLASWTRAGDLSAFDPRAVEHYRIAFADPMRRHVMCEDYRAGAYADFEHDKIDVEAGNKIPVPMLALWGASGIAQSAATPLDVWRKWASDVQGAPIESGHFLPEEAPDQTAEALVRFFSAAP
notes: Fluoroacetate dehalogenase (FAcD), gene Rpa1163, residues 1-302; His6-SUMO tag cleaved off by ULP1; Homodimer by native MS; also called WT; WT-Di; source: E. coli BL21(DE3), purified (nickel column, SEC); not shown: His6, N-terminal, cleaved; SUMO, N-terminal, cleaved
Question: B1 was tested. Which “stoichiometry N” value did it give?
Answer: The value was 2.
